From the nanobody polyreactivity screen of Harvey et al. (2022)

Experiment: yeast display, Sf9 membrane polyspecificity reagent, FACS + sequencing; frameworks hold sequencing errors
Method in brief: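 A synthetic nanobody library was expressed on Saccharomyces cerevisiae BJ5465 by galactose induction for 36–48 hours. The library was stained for 1 hour at 4 °C with 10% biotinylated, detergent-solubilized Sf9 membrane reagent and enriched with streptavidin microbeads before FACS. Low and high (top ~1%) gates were set on anti-HA fluorescence for expression and streptavidin fluorescence for reagent binding, and each polyreactivity label reflects the gate of origin.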

Sequence | polyreactivity (PSR sort gate)
QVQLVESGGGIVQAGRSLRLSCPASGLIFGPYTMGWYRQAPGKERELVAAISRSGGITYYADSVKGRFTISRDNATNTVYLQMNSLKPEDTAVYYCAARLVRESEPLGYWGQGTQVTLSS | high polyreactivity
QVQLVESGGGIVQAGVSLRLISAASGRIFRINAMGWYRQAPGKERDLVADITSGGSTNYADSVKGRFTISRDNAKITVYLQMNSLKPEDTAVYFCAPGYVTYRTRLDYWGQGTQVTVSS | low polyreactivity
QVQLVESGGGIVQAGVSLRLSCAASGISYSPNVMGWYRQAPGKERELVASISSGGSTYYADSVNGRFTISRDNATNSVYLQMNSLKPEDTAVYYCAAEVDGYWTYYYWGQGTQVTVSS | low polyreactivity
QVQLVESGGGIVQAVGSLRLSCAASGSTFRLYAMGWYRQAPGKERELVAAISSNGVRTYYADSVKGRFTISRDNAKNTVYLQINSLKPEDTAVYYCAARVYPAYPRGYDYWGQGTQVNVSS | high polyreactivity
QVQLVESGGGIVQEAGSLSLSCAASRLTFTTYNMGWSRPAPGKERELVAALSSRGGSTYYADSVKGRFTISRDNAKNTVYLEKNSLKPEDTAVDYCNAPRPHRMDWGQGTQVTVSS | high polyreactivity
QVQLVESGGGIVQPGGRLRLSCAASGSILYGYAMGWYRQAPGKERELVAVITSGGSTNYADTVKGRFTISRDNAKNTVYLQMNSLKPEDTAVYYCAADPYSVYGGDYWGQGTQVTVSS | low polyreactivity
QVQLVESGGGIVQSGGSLGLSCAASGYTFRTNVMGWYRQAPGKERELVATINWRGGSTYYADSVKGRFTISRDTAKNTVYLQMNSLKPEDTAVYYCAKTYSYYRTMDYWGQGTQVTGSS | low polyreactivity
QVQLVESGGGKVQAGGSLRLICAASGSTFTYNTMGWYRQAPGKERELVAAISSGGSTYYADSVKGRFTISRDNAKNTVYLQLNSLNPVDTAVYYCAATAQKYSRYGSRYYYWGQGTQVTVSS | high polyreactivity
QVQLVESGGGLAQAGGSLRLSCAASGNIFRINGMGWYRQAPGKERELVASITRSGSTYYADSVKGRFTISRDNAKNTVYLQMNSLKPEDTAVYFCAADSRRYGVRFDYWGQGTQVTVSS | low polyreactivity
QVQLVESGGGLAQAGGSLRLSCAASGRTFRRYAMGWYRQAPGKEREMVAAITSGGDTYYADSVKGRFTISRDNAKNTVYLQMNSLKPEDTAVYYCNAASVTRRTGIRAVDFDYWGQGTQVTVSS | high polyreactivity
QVQLVESGGGLDHAGGPLRLSCAASGTIFAYYNMGWYRQPPGKERELVAGISKRGGNTYYADSVKGRFTISRDNAKNTVYLQMNSLKPEDTAVYYCNKRYSANTRGYYYWGQGTQVTVSS | high polyreactivity
QVQLVESGGGLDQAGGRLPLTWAASGFTFWKYAMGLYRQAPGKERELVAANSVSGGRTYYADSVKGRFTISRDNAKNTVSLQMNRLKPEDTAVYFCNATPWRPYVGGEYWGQGTQVTVSS | high polyreactivity
QVQLVESGGGLDQAGGRLRLSCAASGRTFIVFAMGWYRQAPGKESELVAGITRGSTNYADSVKGRFTISRDNAKNTVYLQMNSLKPEDTEVYYCATEVYIWPWGTVYAFEYDYWGQGTQVTVSS | high polyreactivity
QVQLVESGGGLDQAGGRLRLSSAASGYTFRNYAKGLYRQATGQERELVAAITSSTSSTYYADSVKGRFTISRDNAKNTVYLQMNSLKPEDTAVYYCNRVWSPYMDYWGQGTQVTVSS | high polyreactivity
QVQLVESGGGLDQAGGSLPLSCAASGSTFPGNAMGWYSQARGKERELVARINDGADTNYADSVKGRFTISRDNAKNTVYLQMNSLKPEDTAVYYCAADKRGTVYLSSFWMDYWGQGTQVTVSS | low polyreactivity
QVQLVESGGGLDQAGGSLRLICAASGRIFDVNAMGWYRQAPGKERELVAAISDSGGSTYYADSVKGRFTISRDNAKNTVYLQMNSLKPEDTAVYYCNANTPSLKRSTFNYWGQGTQVTVSS | low polyreactivity
QVQLVESGGGLDQAGGSLRLICAASGSTFISNVMGWYRPAPGKERELVAAITRSSGRTYYADSVKGRFTISRDNAKNTVYLQMNSLKPEDTAVYYCAARPRGRGVDYWGQGTQVTVSS | high polyreactivity
